# According to publication PMC12591191, “SIRT6 Lysine‐Demyristoylates ATF2 to Ameliorate Vascular Injury via PRKCD/VE‐Cadherin Pathway Regulating Vascular Endothelial Barrier” (Advanced Science, 2025):
# Read-outs that look alike come from different tables or passages of the source. Where a SMILES comes first, the peptide text is derived from it. The star is where a group is joined. Biotin = O=C1N[C@H]2[C@H](CS[C@H]2CCCCC(=O)*)N1; Myristoyl = CCCCCCCCCCCCCC(=O)*
# How the values were obtained:
# [1] = tested on: SIRT6; details: SIRT6 inhibitor, cited from earlier work
# Source text: Table 2 The inhibitors of SIRT6 were represented with structure, IC50, category, company, indications, and reference. | column: IC50
# [2] = biological target: T1, SIRT6 (Homo sapiens, UniProt Q8N6T7); assay: Biolayer interferometry, SIRT6; assay type: binding; details: BLI, PBS-T, cofactor 5 mM
# T1 construct: the full‐length human SIRT6 (1‐355aa) with the flag tag at the C‐terminus; His-tag (N); made in house; host or cells: E. coli ArcticExpress (DE3), pET28a
# Source text: (§1) The plasmid pUC57‐SIRT6 contained the full‐length human SIRT6 (1‐355aa) with the flag tag at the C‐terminus. The PCR fragment SIRT6‐Flag from pUC57‐SIRT6 was inserted into pET28a vector to obtain the plasmid pET28a‐SIRT6. Then the pET28a‐SIRT6G60A, pET28a‐SIRT6R65A, pET28a‐SIRT6S56Y, and pET28a‐SIRT6H133Y expression plasmids were obtained through site‐directed mutagenesis by PCR. These SIRT6 expression plasmids were used for SIRT6 expression and purification in E.coli.
# (§2) The expression plasmids were transformed in the E.coli Arctic Express (DE3) cells, respectively. The E.coli cells were cultured at 37 °C in 2X YT culture medium. When OD600 reached 0.8, cells were induced by 0.2 mM isopropyl‐1‐thio‐β‐D‐galactopyranoside (IPTG) for 18–20 h at 16 °C. Then, cells were harvested by centrifugation at 6000 rpm for 10min at 4 °C and resuspended in lysis buffer (20 mM Tris‐HCl pH 7.2, 500 mM NaCl, 2% glycerol). Cells were lysed by a high‐pressure homogenizer (Avestin), and centrifuged at 15 000 rpm for room temperature min at 4 °C. […]
# (§3) To determinate the affinity of SIRT6 proteins to myristoylated peptides, BLI assays were performed in 96 well plates using an Octet Red96 System. […] Meanwhile, the protein‐peptide affinities were also determined after adding several cofactors (5 mM), such as Mg^2+, Zn^2+, ATP, ADP, AMP, cAMP, NAD^+.
# [3] = biological target: T2, SIRT6 G60A (Homo sapiens, UniProt Q8N6T7, G60A); assay: Biolayer interferometry, G60A mutant; assay type: binding; details: BLI, Octet Red96, PBS-T, 120 µM biotin peptide on sensor, analyte G60A 0.18 to 5.5 µM
# T2 construct: the full‐length human SIRT6 (1‐355aa) with the flag tag at the C‐terminus; made in house; host or cells: E. coli ArcticExpress (DE3), pET28a
# Source text: as §1, §2, §3
# [4] = tested on: aortic endothelium (VE-Cadherin junction continuity); assay: En face VE-Cadherin staining of descending aortas; assay type: in vivo, mouse
# Description: Endothelial specific Sirt6 KO (ecSirt6^−/− ) mice (on a C57/Bl6J background) were developed by Cyagen Biosciences lnc. and litter of wild‐type (WT) mice served as control. Genotyping by tail preparation and PCR were performed at 2 weeks of age. All animal procedures were conducted under animal welfare guidelines and were approved by the Animal Ethics Committee of Zhongshan Hospital, Fudan University (EARIA‐389).
# The cultivation and collection of mice were described above. Remove the outer membrane and longitudinally cut the thoracic aorta of mice for surface staining. After being fixed in 4% paraformaldehyde for 20 min, 0.5% Triton X‐100 was infiltrated into PBS for 30 min, and 10% normal goat serum was blocked in PBS for 1 h. Then, the corresponding primary antibody was incubated overnight at 4 °C. Then, wash HUVECs or tissues three times with PBS, coupled with the corresponding Alexa Fluor 488‐conjugated goat anti‐rabbit IgG (Thermo, cat#A‐11008) or Alexa Fluor 594 ‐conjugated goat anti‐mouse IgG (Thermo, cat#A‐11 005) (1:500; at room temperature, place in a closed solution for 1 h). Cover the slide with DAPI containing fluorine shielding adhesive medium. Randomly select representative images from each group. Fluorescence signal detection was performed using Leica confocal laser scanning microscope (Leica SP8).
# [5] = tested on: ATF2 localization and PRKCD/VE‐cadherin axis in HUVECs; assay: ALK14 versus myristic acid, ATF2 localization and PRKCD/VE-cadherin axis; assay type: cell-based; details: each 10 μg/ml, 12 hours
# Description: Protein samples were separated by SDS/PAGE and transferred to the PVDF membrane. The membrane was blocked with 5% BSA in TBST (25 mM Tris, pH 7.4, 150 mM NaCl, 0.1% Tween‐20), incubated with primary antibodies and secondary antibodies in TBST, and then treated with ECL Plus western blotting detection reagents (Bio‐rad). The chemiluminescence signal was analyzed by ChemiDoc imaging system (Bio‐rad).
# HMEC‐1, obtained from Shanghai Zhong Qiao Xin Zhou Biotechnology, was cultured in MCDB131 medium containing 10% foetal bovine serum (FBS) and 1% antibiotics (penicillin and streptomycin) in 5% CO2 incubator at 37 °C. HUVEC, obtained from Shanghai Zhong Qiao Xin Zhou Biotechnology, were cultured in ECM medium containing 5% FBS, 1% antibiotics (penicillin and streptomycin) and 1% endothelial cell growth supplement (ECGS) in 5% CO2 incubator at 37 °C. HEK 293T were obtained from ATCC, and cultured in Dulbecco's modified Eagle's medium (DM EM) containing 10% FBS and 1% antibiotics (penicillin and streptomycin) in 5% CO2 incubator at 37 °C. The SIRT6 KO 293T cells were constructed by Hanbio Biotechnology, the SIRT6 gRNA was 5′‐[…]‐3′. SIRT6 overexpression and knockdown recombinant lentivirus were constructed by Hanbio Biotechnology, the vector pGLV3‐harboring SIRT6 and SIRT6 shRNA (5′‐[…]‐3′) were used for lentivirus packaging. […]
# [6] = tested on: B‐H3K9^Myr‐5R; assay: Demyristoylase activity by HPLC; assay type: biochemical; details: UV 220 nm, 6 µM enzyme, 450 µM peptide, Tris‐HCl pH 8.0, 6 mM MgCl2, 1 mM NAD^+, 30 °C, 4 h
# Description: (§4) The expression plasmids were transformed in the E.coli Arctic Express (DE3) cells, respectively. The E.coli cells were cultured at 37 °C in 2X YT culture medium. When OD600 reached 0.8, cells were induced by 0.2 mM isopropyl‐1‐thio‐β‐D‐galactopyranoside (IPTG) for 18–20 h at 16 °C. Then, cells were harvested by centrifugation at 6000 rpm for 10min at 4 °C and resuspended in lysis buffer (20 mM Tris‐HCl pH 7.2, 500 mM NaCl, 2% glycerol). Cells were lysed by a high‐pressure homogenizer (Avestin), and centrifuged at 15 000 rpm for […] min at 4 °C. The supernatants were incubated with Ni^+ Sepharose (GE Healthcare) which was pre‐equilibrated in lysis buffer. The resin was washed with 20 column volumes of lysis buffer supplemented with 50 mM imidazole, and then the recombinant proteins were eluted with lysis buffer supplemented with 500 mM imidazole. The eluted fractions were pooled, buffer exchanged (20 mM Tris‐HCl pH 7.2, 250 mM NaCl, 10% glycerol), and concentrated. Finally, the endotoxin was removed by the Pierce High‐Capacity Endotoxin Removal Spin Columns. The purified proteins were stored at −80 °C.
# (§5) The peptides B‐H3K9‐5R (biotin‐[…]), B‐H3K9^Ac‐5R (biotin‐KQTARK^Ac[…]), and B‐H3K9^Myr‐5R (biotin‐KQTARK^Myr[…]) were synthesized. Five arginine residues were added to ensure that the peptides were soluble in water. SIRT6 protein SIRT6 and mutants (6 µM) were incubated with the peptides (450 µM) in the reaction system ([…] Tris‐HCl pH 8.0, 6 mM MgCl2, 1 mM NAD^+) at 30 °C. After 4 h, the reactions were terminated by adding 4% TFA at 37 °C for 10 min. After centrifuging at 12 000rpm for 15 min at room temperature, the supernatants were collected and analyzed via HPLC using an Aeris peptide XB‐C18 column (150 × 4.6 mm, 3.6 µm; Phenomenex, USA). The mobile phase consisted of solvent A (0.1% TFA in HPLC‐grade H2O) and solvent B (0.1% TFA in HPLC‐grade acetonitrile). Peptides were eluted in a linear gradient of 0–90% solvent B at 1 ml min^−1 over 19 min. The column temperature was set at 25 °C, and the peptides were monitored with UV light (220 nm).
# [7] = tested on: B‐H3K9^Ac‐5R; assay: Deacetylase activity by HPLC; assay type: biochemical; details: UV 220 nm, 6 µM enzyme, 450 µM peptide, Tris‐HCl pH 8.0, 6 mM MgCl2, 1 mM NAD^+, 30 °C, 4 h
# Description: as §4, §5
# [8] = biological target: T3, SIRT6 H133Y (dSIRT6) (Homo sapiens, UniProt Q8N6T7, H133Y); assay: Co-immunoprecipitation enrichment of myristoylated peptide; assay type: binding; details: Co-IP with negative control peptide, n=3
# T3 construct: the full‐length human SIRT6 (1‐355aa) with the flag tag at the C‐terminus; made in house; host or cells: E. coli ArcticExpress (DE3), pET28a
# Description: SIRT6/mutants (10 µM) were incubated with B‐H3K9^Myr‐5R or B‐H3K9‐5R (7 µM) in different IP buffers based on buffer (1X PBS, 0.2% tween‐20) at 30 °C for 4h. Then the mixtures were incubated with magnetic flag‐beads at room temperature for 2h. Then, tubes were placed on a magnetic rack for 1 minute, and the supernatants were discarded. The beads were washed three times with an IP buffer and eluted with different elution buffers. The eluants and beads were then analyzed by western blotting with biotin monoclonal antibody or SIRT6 antibody.
# T1 sequence (Q8N6T7 whole entry): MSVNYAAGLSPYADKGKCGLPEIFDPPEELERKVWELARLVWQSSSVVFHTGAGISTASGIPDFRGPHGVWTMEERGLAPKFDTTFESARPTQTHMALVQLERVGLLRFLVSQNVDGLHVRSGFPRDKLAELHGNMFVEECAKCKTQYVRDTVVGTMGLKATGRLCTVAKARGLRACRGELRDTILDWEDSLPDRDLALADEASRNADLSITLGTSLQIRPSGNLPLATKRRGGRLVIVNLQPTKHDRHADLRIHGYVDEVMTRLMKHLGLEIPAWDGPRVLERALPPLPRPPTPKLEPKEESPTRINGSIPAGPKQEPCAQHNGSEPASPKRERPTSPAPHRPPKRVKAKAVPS
# T2 sequence (Q8N6T7 whole entry G60A): as the sequence (Q8N6T7 whole entry) above, with G60A counted along it
# T3 sequence (Q8N6T7 whole entry H133Y): as the sequence (Q8N6T7 whole entry) above, with H133Y counted along it
Compound,demyristoylase activity [6],deacetylase activity [7],also measured
CN1CCN(c2ccc([N+](=O)[O-])c(N)c2)CC1 [5‐(4‐methylpiperazin‐1‐yl)‐2‐nitroaniline],,,IC50 ([1]; ref [65]): 4.93 µM
Nc1ncnc2c1ncn2[C@@H]1O[C@H](COP(=O)(O)OP(=O)(O)O)[C@@H](O)[C@H]1O [ADP],,,effect of cofactor on SIRT6 affinity for B‐H3K9^Myr‐5R [2]: significantly enhanced SIRT6 affinity
Nc1ncnc2c1ncn2[C@@H]1O[C@H](COP(=O)(O)OP(=O)(O)OP(=O)(O)O)[C@@H](O)[C@H]1O [ATP],,,effect of cofactor on SIRT6 affinity for B‐H3K9^Myr‐5R [2]: significantly enhanced SIRT6 affinity
CCCCCCCCCCCCCC(=O)NCCCC[C@H](NC(=O)[C@H](CCCNC(=N)N)NC(=O)[C@H](C)NC(=O)[C@@H](NC(=O)[C@H](CCC(N)=O)NC(=O)[C@H](CCCCN)NC(=O)CCCC[C@@H]1SC[C@@H]2NC(=O)N[C@@H]21)[C@@H](C)O)C(=O)N[C@@H](CO)C(=O)N[C@H](C(=O)NCC(=O)NCC(=O)N[C@@H](CCCCN)C(=O)N[C@@H](C)C(=O)N[C@@H](CCCNC(=N)N)C(=O)N[C@@H](CCCNC(=N)N)C(=O)N[C@@H](CCCNC(=N)N)C(=O)N[C@@H](CCCNC(=N)N)C(=O)N[C@@H](CCCNC(=N)N)C(=O)O)[C@@H](C)O [B‐H3K9^Myr‐5R] (Biotin-KQTARK(Myristoyl)STGGKARRRRR-OH),,,Kd [3]: 1.3 ± 0.11 µM
Cc1nn(C)c(C)c1NS(=O)(=O)c1c(Cl)cc(-c2ccnc(N3CCNCC3)c2)cc1Cl [DDD85646],,,"therapeutic efficacy ([4]; 100 mg kg^−1 day^−1, n = 6–8): suboptimal therapeutic efficacy"
NC(=O)c1ccc[n+]([C@@H]2O[C@H](COP(=O)([O-])O)[C@@H](O)[C@H]2O)c1 [NMN],,,"endothelial damage induced by high‐fat diet in SIRT6‐deficient endothelium ([4]; NMN 100 mg kg^−1 day^−1, n = 6–8): partially rescued endothelial damage"
O=C(Nc1ccc(O)c(C(=O)O)c1)c1cccc(NC(=O)c2ccco2)c1 [OSS‐128167],,,IC50 ([1]; ref [68]): 89 µM
"CCCCCCCCCCCCCC(=O)O [natural myristic acid, Myristic acid]",,,"impact on ATF2 localization and PRKCD/VE‐cadherin axis, myristic acid versus ALK14 [5]: equivalent impacts"
Diquercetin,,,IC50 ([1]; ref [64]): 130 µM
G60A: SIRT6 G60A mutant,strong demyristoylase activity,without detectable deacetylase activity,
H133Y: SIRT6 H133Y mutant,lacked both enzymatic activities,lacked both enzymatic activities,selectivity of H133Y for myristoylated peptide [8]: confirmed the selectivity
R65A: SIRT6 R65A mutant,lacked demyristoylase activity,weak deacetylase activity,
S56Y: SIRT6 S56Y mutant,lacked both enzymatic activities,lacked both enzymatic activities,
"SIRT6 WT: full‐length human SIRT6 (1‐355aa) with the flag tag at the C‐terminus, expressed in E.coli",significant demyristoylase activity,weak deacetylase activity,
